Source: publication doi:10.1101/2021.02.17.431740

Legend:
[1] = biological target: HA-tagged PEAK3 Y24 mutant (SH2 binding motif mutant; DKO MCF-10A cells) (UniProt Q6ZS72); assay: co-IP
[2] = biological target: HA-tagged PEAK3 SH3(1) mutant (DKO MCF-10A cells) (UniProt Q6ZS72); assay: co-IP

Sequence of PYK2 (MCF-10A cells) (Q14289 whole entry): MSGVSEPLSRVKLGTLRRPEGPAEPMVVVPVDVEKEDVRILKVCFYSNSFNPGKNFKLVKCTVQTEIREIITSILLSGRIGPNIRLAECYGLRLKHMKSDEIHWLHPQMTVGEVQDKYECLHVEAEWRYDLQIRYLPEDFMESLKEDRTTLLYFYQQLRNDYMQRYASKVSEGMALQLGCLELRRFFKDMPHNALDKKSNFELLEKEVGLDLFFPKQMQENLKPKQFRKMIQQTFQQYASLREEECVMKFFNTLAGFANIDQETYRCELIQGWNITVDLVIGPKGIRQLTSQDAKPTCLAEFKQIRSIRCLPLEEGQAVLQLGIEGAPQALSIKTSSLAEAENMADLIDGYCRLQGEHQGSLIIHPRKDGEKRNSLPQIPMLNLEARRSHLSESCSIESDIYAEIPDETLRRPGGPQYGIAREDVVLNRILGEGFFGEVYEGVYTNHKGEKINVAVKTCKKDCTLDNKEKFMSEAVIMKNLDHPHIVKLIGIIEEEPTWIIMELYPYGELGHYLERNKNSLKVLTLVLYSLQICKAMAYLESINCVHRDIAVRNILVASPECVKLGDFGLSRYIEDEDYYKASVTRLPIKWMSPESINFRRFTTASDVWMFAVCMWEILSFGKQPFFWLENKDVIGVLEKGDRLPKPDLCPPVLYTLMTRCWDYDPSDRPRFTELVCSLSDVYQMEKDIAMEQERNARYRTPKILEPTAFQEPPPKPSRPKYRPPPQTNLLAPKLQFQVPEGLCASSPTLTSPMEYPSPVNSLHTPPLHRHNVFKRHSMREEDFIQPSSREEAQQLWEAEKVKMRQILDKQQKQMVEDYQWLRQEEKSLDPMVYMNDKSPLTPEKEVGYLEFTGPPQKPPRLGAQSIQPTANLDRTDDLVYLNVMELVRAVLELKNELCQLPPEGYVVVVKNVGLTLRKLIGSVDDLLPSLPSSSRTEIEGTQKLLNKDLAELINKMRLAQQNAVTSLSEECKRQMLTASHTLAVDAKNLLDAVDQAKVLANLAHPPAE
Sequence of CrkII (MCF-10A cells) (P46108 whole entry): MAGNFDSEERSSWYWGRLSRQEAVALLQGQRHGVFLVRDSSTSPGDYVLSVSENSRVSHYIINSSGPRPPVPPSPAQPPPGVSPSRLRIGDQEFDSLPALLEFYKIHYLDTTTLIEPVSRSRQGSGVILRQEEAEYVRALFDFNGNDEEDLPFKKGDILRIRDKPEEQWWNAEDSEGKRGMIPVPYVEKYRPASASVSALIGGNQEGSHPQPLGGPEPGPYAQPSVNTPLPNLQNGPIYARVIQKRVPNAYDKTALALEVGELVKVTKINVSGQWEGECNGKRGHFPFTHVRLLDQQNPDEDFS

Row | Substance | association relative to WT PEAK3 (control) [1] | recruitment relative to WT PEAK3 [2] [%]
1 | CrkII (MCF-10A cells) (from UniProt P46108-1 1-304) (natural protein) | 40 % of control | –
2 | PYK2 (MCF-10A cells) (from UniProt Q14289 1-1009) (natural protein) | – | 50
